Reference: article PMC6256979, “Screening and Improvement of an Anti-VEGF DNA Aptamer”

Legend:
VEGF-A165 = VEGF-A165 (Homo sapiens (Human), UniProt P15692 27-191, N-glycosylated (Sf21)); experiment: SPR; TBSE 10 mM Tris-HCl pH 7.0, 100 mM NaCl, 0.05 mM EDTA (folded with 50 mM KCl in Fig 3), 24 C; VEGF on CM5; conditions: chain copies: 2
VEGF-A121 = VEGF-A121 (Homo sapiens (Human), UniProt P15692 27-147, none (E. coli)); experiment: as above; conditions: chain copies: 2
Chain of VEGF-A121 (P15692 other isoform, or with tags, fused parts or gaps): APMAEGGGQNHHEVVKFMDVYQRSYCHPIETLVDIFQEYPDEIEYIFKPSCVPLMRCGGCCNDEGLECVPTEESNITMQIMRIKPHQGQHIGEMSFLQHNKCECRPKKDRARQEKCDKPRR

Chain of VEGF-A165 (P15692 other isoform, or with tags, fused parts or gaps): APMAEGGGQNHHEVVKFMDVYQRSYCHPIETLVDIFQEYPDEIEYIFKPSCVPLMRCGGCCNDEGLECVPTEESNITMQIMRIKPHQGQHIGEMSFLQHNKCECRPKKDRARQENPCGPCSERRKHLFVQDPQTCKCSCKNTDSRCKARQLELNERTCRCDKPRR

B1: Vap7 (ssDNA)
DNA: ATACCAGTCTATTCAATTGCACTCTGTGGGGGTGGACGGGCCGGGTAGATAGTATGTGCAATCA
modifications: G-quadruplex
Kd (VEGF-A165): 20 nM | Kd (VEGF-A121): 1 nM

TGTGGGGGTGGACGGGCCGGGTAGA (ssDNA, G-quadruplex) [V7t1]
Kd (VEGF-A121): 1.1 nM
